Measurements taken from PMC7731665 (Frontiers in Immunology, 2020).

Target: T1, vimentin in lupus nephritis kidney tissue (Homo sapiens, UniProt P08670)
T1 construct: endogenous vimentin of human lupus nephritis biopsies; vimentin-rich zones marked with the anti-vimentin antibody V9; also called Vim^hi zones of inflamed lupus kidney; source: endogenous, paraffin embedded human lupus kidney biopsies
Test: immunostaining of cells or tissue; paraffin embedded lupus nephritis kidney biopsies, FLAG-tagged human IgG1 mAbs detected with rat anti-FLAG and Alexa Fluor 488 anti-rat IgG, co-stained with V9 and Hoechst; confocal microscopy, per field of view
Conditions: one partner purified

T1 sequence (P08670 whole entry): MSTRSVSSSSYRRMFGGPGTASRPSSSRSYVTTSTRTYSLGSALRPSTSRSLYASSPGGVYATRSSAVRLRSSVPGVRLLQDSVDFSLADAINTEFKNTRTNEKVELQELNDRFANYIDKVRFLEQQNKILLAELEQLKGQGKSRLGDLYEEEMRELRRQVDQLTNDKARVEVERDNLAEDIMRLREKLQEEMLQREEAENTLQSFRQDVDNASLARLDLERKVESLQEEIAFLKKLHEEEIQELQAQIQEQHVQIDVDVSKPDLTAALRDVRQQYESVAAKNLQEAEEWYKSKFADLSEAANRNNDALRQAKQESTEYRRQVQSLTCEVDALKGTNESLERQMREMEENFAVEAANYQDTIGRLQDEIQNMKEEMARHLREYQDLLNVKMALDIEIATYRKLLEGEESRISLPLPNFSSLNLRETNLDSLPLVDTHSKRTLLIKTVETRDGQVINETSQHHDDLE

binding result: binds
B1: FLAG-tagged PB4rev (antibody, V domains shown)
VH: QVQLQESGPGLVKPSETLSLTCTVSGGSISSYYWSWIRQPAGKGLEWIGRIYTSGSTNYNPSLKSRVTMSVDTSKNQFSLKLSSVTAADTAVYYCARESRGAVLTGDYYYYYYMDVWGKGTTVTVSS
VL: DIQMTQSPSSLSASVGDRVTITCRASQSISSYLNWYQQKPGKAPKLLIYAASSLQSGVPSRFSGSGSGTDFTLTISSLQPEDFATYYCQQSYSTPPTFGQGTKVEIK
notes: as the heavy chain of m8; as the light chain of m8; also called PB4rev (FLAG); source: heavy chain vector FJ475055 with FLAG co-expressed with the light chain plasmid, purified with protein A; not shown: FLAG, C-terminal, kept
